Results reported in publication PMC6856157.

Biological target: V1N, hybrid peptide of the collagen domain (POG)8 and the cell penetrating peptide domain (RRG)2, without the FITC reporter
Test: circular dichroism; V1N/siRNA complex in Milli-Q water, 90 uM V1N and 5 uM siRNA, equilibrated 30 min at 25 °C or 37 °C; positive peak at 224 nm

- stoichiometry N: 3
Substance: V1N, hybrid peptide of the collagen domain (POG)8 and the cell penetrating peptide domain (RRG)2, without the FITC reporter
